The values that follow come from patent publication US20250032632A1 (published 2025).

Assay [1] deals with human cMET-Fc fusion protein (extracellular domain of human cMET fused to human Fc) (human) (UniProt P08581). Nature of the assay: SPR with hMet-Fc.
For assay [2], the target named is T1, mutant cMET (E168D) Fc recombinant fusion protein (human, UniProt P08581 25-932).
T1 construct: also called E168D cMET; E168D cMET extracellular domain fused to human IgG1 Fc; not shown: Fc of human IgG1
Nature of the assay: binding ELISA, plate-coated E168D cMET-Fc, goat anti-human IgG (H+L)-HRP (FIG. 16). On the procedure: The E168D mutation is a somatic mutation found in small cell lung cancer (SCLC). The mutation is located in the Sema domain and leads to constitutive activation of the cMET receptor. Abundance of somatic mutations of cMET are very low. E168D occurs in 0.8% to 3% of SCLC patients. A binding ELISA was performed with human cMET or E168D cMET extracellular domains fused to human IgG1 Fc. cMET proteins were coated on a plate overnight and the samples titrated and detected with a goat anti-human IgG (H+L)-HRP. EC₅₀s were determined using sigmoidal dose response fit.

In assay [3] the target is T2, rat cMET-Fc (rat, UniProt P97523 25-935).
T2 construct: Construct named only as rMET-Fc; also called rMET-Fc; not shown: Fc part
Briefly: SPR, rMET-Fc.

For assay [4], the target named is T3, human cMET (ELISA antigen) (human, UniProt P08581 25-932, limits assumed).
T3 construct: also called hMET
Briefly: ELISA on human cMET, relative to parental P3D12.

Assay [5] deals with T4, rat cMET (ELISA antigen) (rat, UniProt P97523 25-935, limits assumed).
T4 construct: also called rMET
Nature of the assay: ELISA on rat cMET, relative to parental P3D12.

Assay [6] addresses T5, human cMET-Fc fusion protein (extracellular domain of human cMET fused to human Fc) (human, UniProt P08581 25-932).
T5 construct: Mature cMET is cleaved into alpha and beta subunits; also called hMET-Fc; hMet-Fc
Briefly: SPR, hMET-Fc.

Assay [7] concerns the target T6, Recombinant Human c-Met-10X His (human, UniProt P08581 25-932).
T6 construct: In-house reagent (Lot #140924TA); not shown: 10X His tag
Nature of the assay: ELISA, plate-bound human cMET (FIGS. 17A, 17B). From the text:
Relative binding strength is indicated by luminescence (y-axis).

The target in assay [8] is T6, Recombinant Human c-Met-10X His. Nature of the assay: cMET binding ELISA, plate-bound human cMET (FIGS. 24A, 24B). On the procedure:
The antibody drug conjugates were tested at increasing concentrations (x-axis, concentration of antibody-drug conjugate (μg/ml)) for their ability to bind plate-bound human cMET. Relative binding strength is indicated by luminescence (y-axis).
PMID: 5257969. The payload of chemical formula II was site-specifically conjugated to each of the mutated cysteine residues using Maleimide chemistry. The quality and extent of conjugation was assessed by a determination of total recovery, aggregate content, monomer content and drug-antibody ratio (DAR).

The target in assay [9] is T5, human cMET-Fc fusion protein …. Briefly: SPR with hMet-Fc.
Assay [10] has as its target mouse cMET (ELISA antigen) (mouse, UniProt P16056 25-931, limits assumed). Briefly: ELISA, cross-reactivity, mouse cMET.
For assay [11], the target named is T4, rat cMET (ELISA antigen). Briefly: ELISA, cross-reactivity, rat cMET.

T5 sequence (P08581 25-932): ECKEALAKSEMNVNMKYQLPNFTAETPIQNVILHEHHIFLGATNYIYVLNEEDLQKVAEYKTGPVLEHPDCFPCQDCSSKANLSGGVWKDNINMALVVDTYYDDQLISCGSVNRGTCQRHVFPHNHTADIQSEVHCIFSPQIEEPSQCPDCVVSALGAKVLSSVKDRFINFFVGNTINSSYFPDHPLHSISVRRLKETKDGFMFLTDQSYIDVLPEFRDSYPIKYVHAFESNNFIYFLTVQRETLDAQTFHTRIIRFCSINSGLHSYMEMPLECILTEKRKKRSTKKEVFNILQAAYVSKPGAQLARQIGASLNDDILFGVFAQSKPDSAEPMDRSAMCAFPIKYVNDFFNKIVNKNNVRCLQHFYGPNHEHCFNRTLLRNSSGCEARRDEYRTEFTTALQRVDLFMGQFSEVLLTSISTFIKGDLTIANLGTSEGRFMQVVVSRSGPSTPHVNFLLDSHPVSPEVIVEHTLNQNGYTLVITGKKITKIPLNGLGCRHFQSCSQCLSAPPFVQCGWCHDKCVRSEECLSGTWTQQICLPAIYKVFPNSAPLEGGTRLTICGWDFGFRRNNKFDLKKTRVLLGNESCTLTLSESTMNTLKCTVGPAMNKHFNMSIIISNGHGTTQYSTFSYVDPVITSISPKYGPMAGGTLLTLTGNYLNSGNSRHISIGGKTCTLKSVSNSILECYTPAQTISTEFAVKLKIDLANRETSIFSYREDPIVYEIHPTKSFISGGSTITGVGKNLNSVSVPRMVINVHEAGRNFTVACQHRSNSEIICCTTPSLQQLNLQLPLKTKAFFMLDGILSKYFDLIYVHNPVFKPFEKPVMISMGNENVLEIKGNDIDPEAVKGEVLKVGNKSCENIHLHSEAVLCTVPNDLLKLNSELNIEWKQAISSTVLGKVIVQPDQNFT
T6 sequence (P08581 25-932 limits assumed): as the sequence (P08581 25-932) above
mouse cMET (ELISA antigen), sequence (P16056 25-931 limits assumed): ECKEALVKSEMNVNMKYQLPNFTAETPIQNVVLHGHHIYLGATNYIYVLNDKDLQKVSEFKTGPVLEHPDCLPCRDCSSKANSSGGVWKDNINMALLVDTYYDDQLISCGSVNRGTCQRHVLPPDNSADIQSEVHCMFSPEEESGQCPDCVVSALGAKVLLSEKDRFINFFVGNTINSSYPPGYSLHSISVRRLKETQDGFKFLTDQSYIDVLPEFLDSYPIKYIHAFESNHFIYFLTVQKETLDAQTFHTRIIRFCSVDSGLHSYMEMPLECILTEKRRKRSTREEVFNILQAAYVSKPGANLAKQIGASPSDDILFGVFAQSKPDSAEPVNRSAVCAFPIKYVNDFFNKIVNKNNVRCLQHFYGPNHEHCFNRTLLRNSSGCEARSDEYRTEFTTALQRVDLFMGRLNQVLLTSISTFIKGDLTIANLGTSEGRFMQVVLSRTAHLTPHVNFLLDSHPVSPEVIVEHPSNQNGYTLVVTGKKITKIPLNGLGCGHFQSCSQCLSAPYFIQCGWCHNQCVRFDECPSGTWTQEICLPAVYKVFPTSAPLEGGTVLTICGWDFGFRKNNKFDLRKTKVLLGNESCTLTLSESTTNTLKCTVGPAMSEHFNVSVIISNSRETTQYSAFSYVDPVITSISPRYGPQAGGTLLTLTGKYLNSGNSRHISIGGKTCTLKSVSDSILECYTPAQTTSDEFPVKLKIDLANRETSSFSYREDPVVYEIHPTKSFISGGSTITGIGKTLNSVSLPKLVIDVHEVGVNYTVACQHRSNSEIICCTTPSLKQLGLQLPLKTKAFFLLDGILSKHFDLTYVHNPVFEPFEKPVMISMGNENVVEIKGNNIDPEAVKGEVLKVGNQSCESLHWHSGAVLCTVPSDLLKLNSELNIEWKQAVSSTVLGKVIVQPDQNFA
T4 sequence (P97523 25-935 limits assumed): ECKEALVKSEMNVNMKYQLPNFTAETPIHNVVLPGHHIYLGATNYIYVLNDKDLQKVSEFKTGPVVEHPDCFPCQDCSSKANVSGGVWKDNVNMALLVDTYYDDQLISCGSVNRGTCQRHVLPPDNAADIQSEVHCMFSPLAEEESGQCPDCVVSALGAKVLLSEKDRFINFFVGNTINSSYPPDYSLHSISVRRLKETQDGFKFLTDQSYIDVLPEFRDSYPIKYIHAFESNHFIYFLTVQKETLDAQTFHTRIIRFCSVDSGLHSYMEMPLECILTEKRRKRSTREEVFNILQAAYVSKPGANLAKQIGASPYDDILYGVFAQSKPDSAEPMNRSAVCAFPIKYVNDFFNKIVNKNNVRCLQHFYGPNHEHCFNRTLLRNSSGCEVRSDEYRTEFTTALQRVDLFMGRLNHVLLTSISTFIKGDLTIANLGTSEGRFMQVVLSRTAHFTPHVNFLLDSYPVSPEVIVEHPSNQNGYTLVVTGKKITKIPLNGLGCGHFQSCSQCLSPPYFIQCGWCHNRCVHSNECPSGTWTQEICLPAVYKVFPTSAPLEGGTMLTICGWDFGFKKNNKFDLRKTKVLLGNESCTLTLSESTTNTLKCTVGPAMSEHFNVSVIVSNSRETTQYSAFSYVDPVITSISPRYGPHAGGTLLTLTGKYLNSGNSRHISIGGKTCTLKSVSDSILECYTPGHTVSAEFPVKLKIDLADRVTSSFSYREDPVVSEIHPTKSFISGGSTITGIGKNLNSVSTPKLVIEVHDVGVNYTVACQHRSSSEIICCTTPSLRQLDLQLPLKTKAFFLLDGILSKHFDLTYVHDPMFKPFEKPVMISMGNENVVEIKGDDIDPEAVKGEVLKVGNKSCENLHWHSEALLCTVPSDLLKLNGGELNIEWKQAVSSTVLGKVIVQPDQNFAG
T2 sequence (P97523 25-935 limits assumed): as above
T1 sequence (P08581 25-932 E168D): as the sequence (P08581 25-932) above, with E144D counted along it
human cMET-Fc fusion protein (extracellular domain of human cMET fused to human Fc) (human), sequence (P08581 25-932): as the sequence (P08581 25-932) above
T3 sequence (P08581 25-932 limits assumed): as the sequence (P08581 25-932) above

In assay [1], 5D5 (antibody) showed a Kd of 0.8 nM.

B1: hD12 (humanized anti-cMET antibody of IgG2 isotype, VH-cdr SEQ ID NO: 108 + VL-fra SEQ ID NO: 47) (antibody)
heavy: QVQLVQSGAEVKKPGASVKVSCKASGYTFTSYWMHWVKQAPGQGLDWIGYIKPSTDNTEYNQKFKDKATLTADKSTSTAYMELSSLRSEDTAVYYCARSYGNYPLMDYWGQGTTVTVSSASTKGPSVFPLAPCSRSTSESTAALGCLVKDYFPEPVTVSWNSGALTSGVHTFPAVLQSSGLYSLSSVVTVPSSNFGTQTYTCNVDHKPSNTKVDKTVERKCCVECPPCPAPPVAGPSVFLFPPKPKDTLMISRTPEVTCVVVDVSHEDPEVQFNWYVDGVEVHNAKTKPREEQFNSTFRVVSVLTVVHQDWLNGKEYKCKVSNKGLPAPIEKTISKTKGQPREPQVYTLPPSREEMTKNQVSLTCLVKGFYPSDIAVEWESNGQPENNYKTTPPMLDSDGSFFLYSKLTVDKSRWQQGNVFSCSVMHEALHNHYTQKSLSLSPGK
light: QIVLTQSPAILSLSPGERATLSCSASSSVTSNYLYWYQQKPGSSPKLLIYSTSNLASGVPARFSGSGSGTSYTLTISSLEAEDAASYFCHQWSSYPPTFGSGTKLEIKRTVAAPSVFIFPPSDEQLKSGTASVVCLLNNFYPREAKVQWKVDNALQSGNSQESVTEQDSKDSTYSLSSTLTLSKADYEKHKVYACEVTHQGLSSPVTKSFNRGEC
notes: also called G2ckf
Consider B1, for which the binding result in [2] is listed as “binds”. Also, the Kd came out at 7 nM in [3] and 0.3 nM in assay [6]. For the same molecule, the “ELISA hMET vs parental” value in assay [4] stood at 0.7 fold vs parental. The “ELISA rMET vs parental” value in assay [5] amounted to 0.9 fold vs parental.

B2: hD12-XI (Antibody hD12 attached to the payload of chemical formula XI, stochastic conjugation) (antibody, human IgG2, kappa)
heavy: QVQLVQSGAEVKKPGASVKVSCKASGYTFTSYWMHWVKQAPGQGLDWIGYIKPSTDNTEYNQKFKDKATLTADKSTSTAYMELSSLRSEDTAVYYCARSYGNYPLMDYWGQGTTVTVSSASTKGPSVFPLAPCSRSTSESTAALGCLVKDYFPEPVTVSWNSGALTSGVHTFPAVLQSSGLYSLSSVVTVPSSNFGTQTYTCNVDHKPSNTKVDKTVERKCCVECPPCPAPPVAGPSVFLFPPKPKDTLMISRTPEVTCVVVDVSHEDPEVQFNWYVDGVEVHNAKTKPREEQFNSTFRVVSVLTVVHQDWLNGKEYKCKVSNKGLPAPIEKTISKTKGQPREPQVYTLPPSREEMTKNQVSLTCLVKGFYPSDIAVEWESNGQPENNYKTTPPMLDSDGSFFLYSKLTVDKSRWQQGNVFSCSVMHEALHNHYTQKSLSLSPGK
light: QIVLTQSPAILSLSPGERATLSCSASSSVTSNYLYWYQQKPGSSPKLLIYSTSNLASGVPARFSGSGSGTSYTLTISSLEAEDAASYFCHQWSSYPPTFGSGTKLEIKRTVAAPSVFIFPPSDEQLKSGTASVVCLLNNFYPREAKVQWKVDNALQSGNSQESVTEQDSKDSTYSLSSTLTLSKADYEKHKVYACEVTHQGLSSPVTKSFNRGEC
modifications: payload of chemical formula XI on one or more cysteine residues of the antibody at random positions (chain not stated); payload of chemical formula XI (pyrrolobenzodiazepine toxin + linking group, maleimide) on one or more cysteine residues of the antibody at random positions
notes: Antibody-drug conjugate; also called hD12-vc-XI
In the case of B2, the binding result in [7] was “binds”.

B3: hD12-VII (Antibody hD12 attached to the payload of chemical formula VII, stochastic conjugation) (antibody, human IgG2, kappa)
heavy: QVQLVQSGAEVKKPGASVKVSCKASGYTFTSYWMHWVKQAPGQGLDWIGYIKPSTDNTEYNQKFKDKATLTADKSTSTAYMELSSLRSEDTAVYYCARSYGNYPLMDYWGQGTTVTVSSASTKGPSVFPLAPCSRSTSESTAALGCLVKDYFPEPVTVSWNSGALTSGVHTFPAVLQSSGLYSLSSVVTVPSSNFGTQTYTCNVDHKPSNTKVDKTVERKCCVECPPCPAPPVAGPSVFLFPPKPKDTLMISRTPEVTCVVVDVSHEDPEVQFNWYVDGVEVHNAKTKPREEQFNSTFRVVSVLTVVHQDWLNGKEYKCKVSNKGLPAPIEKTISKTKGQPREPQVYTLPPSREEMTKNQVSLTCLVKGFYPSDIAVEWESNGQPENNYKTTPPMLDSDGSFFLYSKLTVDKSRWQQGNVFSCSVMHEALHNHYTQKSLSLSPGK
light: QIVLTQSPAILSLSPGERATLSCSASSSVTSNYLYWYQQKPGSSPKLLIYSTSNLASGVPARFSGSGSGTSYTLTISSLEAEDAASYFCHQWSSYPPTFGSGTKLEIKRTVAAPSVFIFPPSDEQLKSGTASVVCLLNNFYPREAKVQWKVDNALQSGNSQESVTEQDSKDSTYSLSSTLTLSKADYEKHKVYACEVTHQGLSSPVTKSFNRGEC
modifications: payload of chemical formula VII on one or more cysteine residues of the antibody at random positions (chain not stated); payload of chemical formula VII (pyrrolobenzodiazepine toxin + linking group, maleimide) on one or more cysteine residues of the antibody at random positions
notes: Antibody-drug conjugate; also called hD12-vc-VII
Take B3: the binding result in assay [7] is listed as “binds”.

B4: hD12-T289C-II (hD12 T289C variant site-specifically conjugated to the payload of chemical formula II) (antibody, human IgG2, kappa)
heavy: QVQLVQSGAEVKKPGASVKVSCKASGYTFTSYWMHWVKQAPGQGLDWIGYIKPSTDNTEYNQKFKDKATLTADKSTSTAYMELSSLRSEDTAVYYCARSYGNYPLMDYWGQGTTVTVSSASTKGPSVFPLAPCSRSTSESTAALGCLVKDYFPEPVTVSWNSGALTSGVHTFPAVLQSSGLYSLSSVVTVPSSNFGTQTYTCNVDHKPSNTKVDKTVERKCCVECPPCPAPPVAGPSVFLFPPKPKDTLMISRTPEVTCVVVDVSHEDPEVQFNWYVDGVEVHNAKCKPREEQFNSTFRVVSVLTVVHQDWLNGKEYKCKVSNKGLPAPIEKTISKTKGQPREPQVYTLPPSREEMTKNQVSLTCLVKGFYPSDIAVEWESNGQPENNYKTTPPMLDSDGSFFLYSKLTVDKSRWQQGNVFSCSVMHEALHNHYTQKSLSLSPGK
light: QIVLTQSPAILSLSPGERATLSCSASSSVTSNYLYWYQQKPGSSPKLLIYSTSNLASGVPARFSGSGSGTSYTLTISSLEAEDAASYFCHQWSSYPPTFGSGTKLEIKRTVAAPSVFIFPPSDEQLKSGTASVVCLLNNFYPREAKVQWKVDNALQSGNSQESVTEQDSKDSTYSLSSTLTLSKADYEKHKVYACEVTHQGLSSPVTKSFNRGEC
modifications: payload of chemical formula II on Cys 289 (EU numbering), maleimide chemistry
notes: Antibody-drug conjugate, IgG2
B4: the binding result in assay [8] is reported as “binds”.

B5: F6B1P3D12 (mouse monoclonal anti-cMET antibody) (antibody, V domains shown)
VH: QVQLQQSGAELAKPGASVKMSCRASGYTFTSYWMHWVKQRPGQGLDWIGYIKPSTDNTEYNQKFKDKATLTADKSSSTAYMQLSSLTSEDSAVYYCARSYGNYPLMDYWGQGTSVTVSS
VL: QIVLTQSPAIMSASPGEKVTLTCSASSSVTSNYLYWYQQKPGSSPKLWIYSTSNLASGVPARFSGSGSGTSYSLTISSMEAEDAASYFCHQWSSYPPTFGSGTKLEIKR
notes: Mouse hybridoma antibody (ATCC PTA-125826); also called Mouse P3D12
In the case of B5, the Kd in [9] turned out to be 0.75 nM; in [3], 16 nM; in assay [6], 0.9 nM. The binding result in assay [10] is given as “no binding”.

B6: F6B1P1E2 (antibody, V domains shown)
VH: QVQLQQSGAELAKPGASVKMSCKASGYTFTSYWMHWVKQRPGQGLEWIGYINPSTDYTEYNQKFKDKATLTADKSSTTAYMQLSSLTSEDSAVYYCVRSYGNYPLMDYWGQGTSVTVSS
VL: QIVLTQSPAIMSASPGEKVTLTCSASSSVSSNYLYWYHQKPGSSPKLWIYSTSNLASGVPVRFSGSGSGTSYSLTISSMEAEDAASYFCHQWSSYPPTFGSGTKLEIKR
notes: Mouse monoclonal antibody
Turning to B6, the Kd in assay [9] came to 0.89 nM. Also, the binding result in assay [10] is “no binding”.

B7: F6BP2D4 (antibody, V domains shown)
VH: QVQLQQSGAELAKPGASVKMSCKASGYTFTSYWMHWVKQRPGQGLEWIGYINPSTDYIEYNQKFKDKATLTAGKSSSTAYMQLSSLTSEDSAVYYCARSYGNFPLMDYWGQGTSVTVSS
VL: QIVLTQSPAIMSASPGEKVTLTCSASSSVSSNYLYWYQQKPGSSPKLWIYSTSNLASGVPVRFSGSGSGTSYSLTISSMEAEDAASYFCHQWSSYPPTFGSGTKLEIKR
notes: Mouse monoclonal antibody
In the case of B7, binding in [9] was characterised by a dissociation constant (Kd) of 0.48 nM. In addition, in assay [10], the binding result is on record as “no binding”.

B8: F6AP8E2 (antibody, V domains shown)
VH: EVQLQQSGAELVRPGALVKLSCKASGFNINDYFMHWVKQRPEQGLEWIGWIDPENGNTIYDPKFQGKASITADTSSNTAYLQLSSLTSEDTAVYYCARGGNYLRESYYYAMDYWGQGTSVTVSS
VL: DIVMTQSPKSMSMSVGERVTLSCKASENVGTYVSWYQQKPDQSPKLLIYGASNRYTGVPDRFTGSGSATDFTLTISSVQAEDLADYHCGQSYSYPLTFGAGTKLELKR
notes: Mouse monoclonal antibody
B8: in assay [9], the affinity, expressed as Kd, was 0.16 nM. Also, the binding result in assay [10] and in assay [11] was “no binding” in each case.

B9: F5P5B9 (antibody, V domains shown)
VH: QVQLKESGPGLVAPSQSLSITCTVSGFSLTNYGVNWVRQPPGKGLEWLGLIWGGGDTDYNSALKSRLSISKDNSKSQVFLKMETNSLQTDDTARYYCARDYYGFDYWGQGTTLTVSS
VL: DVLMTQTPLSLPVSLGDQASISCRSSQTIVHGTGNTYLEWYLQKPGQSPKLLIYKVSNRFSGVPDRFSGSGSGTDFTLKISRVEAEDLGVYYCFQGSHVPYTFGGGTKLEIKR
notes: Mouse monoclonal antibody
In the case of B9, the binding result in assay [10] and in assay [11] was “no binding” each time.
